The values that follow come from paper PMC9398005.

Assay [1] addresses Drosophila Su(H) K132M (98-523) (Drosophila) (UniProt P28159). The experiment in a line: ITC; RAM peptide, Hairless or SHARP in the syringe, Su(H) or Rbpj in the cell; 50 mM sodium phosphate, 150 mM sodium chloride; 20 injections of 14 uL; triplicate; one site binding model; 20°C by the methods, 25°C by the legend of Fig 6. On the technique in general: In ITC the heat of successive injections is recorded.

For assay [2], the target named is Drosophila Su(H) E137V (98-523) (Drosophila) (UniProt P28159). Described as above.
The target of assay [3] is Drosophila Su(H) WT (98-523) (Drosophila) (UniProt P28159). The description is as above.
Assay [4] has as its target Drosophila Su(H) (98-523) WT (Drosophila) (UniProt P28159). Put plainly: ITC; cofactor (RAM peptide, Hairless or SHARP) in the syringe, Su(H) or Rbpj in the cell; 50 mM sodium phosphate, 150 mM sodium chloride; 20 injections, triplicate, one site model; 25°C by the legend, 20°C by the methods.

B1: Drosophila Notch RAM peptide (residues 1763-1790) (peptide)
peptide: VLSTQRKRAHGVTWFPEGFRAPAAVMSR
As a reminder, the Kd is the concentration at which binding is half-saturated. In the case of B1, the Ka in assay [1] came to 1.2e+07 M⁻¹; in assay [2] it was 6.5e+06 M⁻¹; in assay [3], 5.4e+06 M⁻¹. Further, the Kd in assay [3] and in assay [4] was 187 nM each time.
